From publication PMC10144703, “Molecular Mechanism of Sirtuin 1 Inhibition by Human Immunodeficiency Virus 1 Tat Protein” (Life, 2023)
Where no end group is shown, it is not given here.

B2: Tat-Cys^−-(1–86), full-length HIV1 Tat (Zaire 2 isolate) with its 7 Cys residues replaced by Ser/Ala (natural protein)
chain: MDPVDPNIEPWNHPGSQPKTASNRAHAKKSAYHSQVAFITKGLGISYGRKKRRQRRRPSQGGQTHQDPIPKQPSSQPRGDPTGPKE
B3: human mini-Sirt1 (aa 183-505-(GGGS)2-641-665) (enzyme)
chain: GPYTFVQQHLMIGTDPRTILKDLLPETIPPPELDDMTLWQIVINILSEPPKRKKRKDINTIEDAVKLLQECKKIIVLTGAGVSVSCGIPDFRSRDGIYARLAVDFPDLPDPQAMFDIEYFRKDPRPFFKFAKEIYPGQFQPSLCHKFIALSDKEGKLLRNYTQNIDTLEQVAGIQRIIQCHGSFATASCLICKYKVDCEAVRGDIFNQVVPRCPRCPADEPLAIMKPEIVFFGENLPEQFHRAMKYDKDEVDLLIVIGSSLKVRPVALIPSSIPHEVPQILINREPLPHLHFDVELLGDCDVIINELCHRLGGEYAKLCCNPVGGGSGGGSQYLFLPPNRYIFHGAEVYSDSEDDV
notes: artificial linker, printed as (GGGS)2; human Sirt1, residues 641-665 (ESA region); Modified pET-19b with TEV cleavage site; source: E. coli CodonPlus(DE3), purified (nickel NTA, protease digestion, second nickel NTA, SEC)

Assays:
[1] = molecular target: T1, human Sirt3-(118-399) (human, UniProt Q9NTG7 118-399); assay: crystal structure; 10 mg/mL Sirt3-(118-399) incubated with 2 mM peptide for 60 min at 20 °C; sitting-drop vapor diffusion at 20 °C (MES pH 6.0/PEG 200/PEG 3000 for ac-Tat-46-54; CHES pH 9.0/PEG 8000 for Tat-37-59); settings: both partners purified
T1 construct: human Sirt3, residues 118-399; The construct used for crystallization; also called hSirt3-(118-399); source: E. coli CodonPlus(DE3), pVFT3S, purified (nickel NTA, protease digestion, second nickel NTA, SEC)
T1 sequence (looked up): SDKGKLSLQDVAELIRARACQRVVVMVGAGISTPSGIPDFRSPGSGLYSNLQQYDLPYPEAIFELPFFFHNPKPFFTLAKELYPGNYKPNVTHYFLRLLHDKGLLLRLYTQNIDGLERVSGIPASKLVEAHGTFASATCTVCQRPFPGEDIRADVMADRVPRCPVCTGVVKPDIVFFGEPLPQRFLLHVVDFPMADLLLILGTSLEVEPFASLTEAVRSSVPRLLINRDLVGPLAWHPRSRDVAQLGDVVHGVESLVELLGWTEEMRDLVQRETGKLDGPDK

[2] = molecular target: B3; assay: cell-based or functional assay
[3] = molecular target: T2, human full-length Sirt1 (human, UniProt Q96EB6 1-747); assay: cell-based or functional assay
T2 sequence (looked up): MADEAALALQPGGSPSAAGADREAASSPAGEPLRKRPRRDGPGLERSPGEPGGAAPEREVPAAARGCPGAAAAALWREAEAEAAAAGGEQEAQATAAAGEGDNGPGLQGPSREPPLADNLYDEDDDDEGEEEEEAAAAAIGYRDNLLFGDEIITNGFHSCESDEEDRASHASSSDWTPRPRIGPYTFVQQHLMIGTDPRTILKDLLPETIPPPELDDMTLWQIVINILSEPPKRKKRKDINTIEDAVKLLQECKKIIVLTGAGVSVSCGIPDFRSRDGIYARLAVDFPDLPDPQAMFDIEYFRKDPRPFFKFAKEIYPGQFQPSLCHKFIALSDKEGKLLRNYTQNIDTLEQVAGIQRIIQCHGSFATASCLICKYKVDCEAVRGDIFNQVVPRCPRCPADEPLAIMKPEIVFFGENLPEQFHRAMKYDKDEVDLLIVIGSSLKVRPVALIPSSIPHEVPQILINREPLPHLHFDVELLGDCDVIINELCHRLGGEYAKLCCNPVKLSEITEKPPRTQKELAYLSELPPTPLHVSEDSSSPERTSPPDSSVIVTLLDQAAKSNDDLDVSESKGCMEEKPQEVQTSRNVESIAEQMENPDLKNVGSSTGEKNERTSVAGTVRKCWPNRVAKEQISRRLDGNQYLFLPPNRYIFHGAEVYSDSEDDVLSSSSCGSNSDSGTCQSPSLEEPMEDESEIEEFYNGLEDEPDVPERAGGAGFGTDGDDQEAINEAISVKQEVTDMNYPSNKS

[4] = molecular target: Sirt3 (as used in the activity assays) (human); assay: cell-based or functional assay
[5] = molecular target: T3, Sirt2-(43-356) (human, UniProt Q8IXJ6 43-356); assay: cell-based or functional assay
T3 sequence (looked up): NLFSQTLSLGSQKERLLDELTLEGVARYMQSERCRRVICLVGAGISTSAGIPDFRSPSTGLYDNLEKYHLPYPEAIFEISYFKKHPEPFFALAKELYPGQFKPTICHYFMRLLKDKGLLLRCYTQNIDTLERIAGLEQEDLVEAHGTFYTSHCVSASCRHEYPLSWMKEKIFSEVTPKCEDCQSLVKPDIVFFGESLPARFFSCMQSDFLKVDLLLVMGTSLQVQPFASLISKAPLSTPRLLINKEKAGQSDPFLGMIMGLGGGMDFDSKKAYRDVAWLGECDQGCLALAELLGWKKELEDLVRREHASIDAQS

[6] = molecular target: B2; assay: NMR titration; unlabeled mini-Sirt1 (stock 260 µM) added stepwise to 100 µM 15N-labeled Tat-Cys^−; 150 mM sodium chloride, 10 mM potassium phosphate pH 6.4; 2D-(1H,15N)-HSQC at 298 K; settings: both partners purified

B1: ac-Tat-46–54 (peptide)
peptide: SYGRK(Ac)KRRQ
notes: HIV1 Tat, residues 46-54, acetylated at Lys50; also called Tat substrate peptide
binding result [1]: binds

B2
inhibition of mini-Sirt1 deacetylation of p53 substrate, coupled-enzyme assay at substrate Km; IC50 [2]: 30 to 40 µM
inhibition of mini-Sirt1 in the FdL assay at substrate Km; IC50 [2]: 2.3 µM
inhibition of fl-Sirt1 deacetylation of FdL substrate, FdL assay at substrate Km; IC50 [3]: 3.6 µM
inhibition of fl-Sirt1 deacetylation of a p53-derived peptide, coupled enzymatic assay, 100 µM substrate; IC50 [3]: ~20 µM
inhibition of Sirt3 in the FdL assay at substrate Km; IC50 [4]: 15.9 µM
inhibition of Sirt2 in the FdL assay at substrate Km; IC50 [5]: 11 µM

B3
binding result [6]: binds
